In IntAct's records for PubMed 29039417:

B1: BBSome complex member BBS2 (Homo sapiens), Q9BXC9 (parent)
chain: MLLPVFTLKLRHKISPRMVAIGRYDGTHPCLAAATQTGKVFIHNPHTRNQHVSASRVFQSPLESDVSLLSINQAVSCLTAGVLNPELGYDALLVGTQTNLLAYDVYNNSDLFYREVADGANAIVLGTLGDISSPLAIIGGNCALQGFNHEGSDLFWTVTGDNVNSLALCDFDGDGKKELLVGSEDFDIRVFKEDEIVAEMTETEIVTSLCPMYGSRFGYALSNGTVGVYDKTSRYWRIKSKNHAMSIHAFDLNSDGVNELITGWSNGKVDARSDRTGEVIFKDNFSSAIAGVVEGDYRMDGHIQLICCSVDGEIRGYLPGTAEMRGNLMDTSAEQDLIRELSQKKQNLLLELRNYEENAKAELASPLNEADGHRGIIPANTRLHTTLSVSLGNETQTAHTELRISTSNDTIIRAVLIFAEGIFTGESHVVHPSIHNLSSSICIPIVPPKDVPVDLHLKAFVGYRSSTQFHVFESTRQLPRFSMYALTSLDPASEPISYVNFTIAERAQRVVVWLGQNFLLPEDTHIQNAPFQVCFTSLRNGGHLHIKIKLSGEITINTDDIDLAGDIIQSMASFFAIEDLQVEADFPVYFEELRKVLVKVDEYHSVHQKLSADMADHSNLIRSLLVGAEDARLMRDMKTMKSRYMELYDLNRDLLNGYKIRCNNHTELLGNLKAVNQAIQRAGRLRVGKPKNQVITACRDAIRSNNINTLFKIMRVGTASS
partner: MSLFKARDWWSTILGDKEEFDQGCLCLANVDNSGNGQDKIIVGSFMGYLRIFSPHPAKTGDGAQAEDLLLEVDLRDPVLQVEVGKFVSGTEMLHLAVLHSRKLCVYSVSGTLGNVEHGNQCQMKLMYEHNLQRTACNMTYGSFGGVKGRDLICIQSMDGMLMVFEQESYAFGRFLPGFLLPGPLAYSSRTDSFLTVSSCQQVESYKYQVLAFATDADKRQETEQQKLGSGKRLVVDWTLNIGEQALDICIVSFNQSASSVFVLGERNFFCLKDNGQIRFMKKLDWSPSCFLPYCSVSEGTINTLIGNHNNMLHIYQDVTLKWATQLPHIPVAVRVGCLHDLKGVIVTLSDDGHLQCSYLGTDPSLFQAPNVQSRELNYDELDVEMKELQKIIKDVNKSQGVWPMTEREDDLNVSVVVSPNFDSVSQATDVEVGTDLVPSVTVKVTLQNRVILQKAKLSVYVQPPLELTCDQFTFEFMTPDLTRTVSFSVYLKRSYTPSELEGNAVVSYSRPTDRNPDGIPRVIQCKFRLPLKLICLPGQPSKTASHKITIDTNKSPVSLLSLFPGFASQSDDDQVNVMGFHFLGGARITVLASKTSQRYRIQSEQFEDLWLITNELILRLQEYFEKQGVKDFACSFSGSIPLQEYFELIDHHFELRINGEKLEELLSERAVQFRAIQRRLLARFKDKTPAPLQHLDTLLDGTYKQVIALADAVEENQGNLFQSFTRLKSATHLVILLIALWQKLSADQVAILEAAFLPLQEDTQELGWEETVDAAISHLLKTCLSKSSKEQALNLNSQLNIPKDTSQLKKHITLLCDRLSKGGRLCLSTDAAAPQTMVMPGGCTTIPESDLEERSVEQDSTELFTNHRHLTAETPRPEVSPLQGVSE

Variants of: B1
Details: with pthb1_human BBS9, Q3SYG4

Variant | effect of a mutation on the interaction
G392E | with no effect
G392K | with no effect
G392A | with no effect
Q396E | with no effect
Q396K | with no effect
Q396A | with no effect
S388K | with no effect
S388A | with no effect
S388E | with no effect
S388P | disrupting interaction strength
N354A | with no effect
N354K | with no effect
N354E | with no effect
N368A | with no effect
N368E | with no effect
N368K | with no effect
E394A | with no effect
E394K | with no effect
A361K | with no effect
A361E | with no effect
H399A | with no effect
H399E | with no effect
H399K | with no effect
N358A | with no effect
N358E | with no effect

Variant | effect of a mutation on the interaction
N358K | with no effect
A359K | with no effect
A359E | with no effect
A370K | with no effect
A370E | with no effect
H384A | with no effect
H384E | with no effect
H384K | with no effect
S405K | with no effect
S405A | with no effect
S405E | with no effect
S405P | disrupting interaction strength
T381E | with no effect
T381A | with no effect
T381K | with no effect
Y355E | with no effect
Y355A | with no effect
Y355K | with no effect
L352A | with no effect
L352E | with no effect
L352K | with no effect
E401K | with no effect
E401A | with no effect
I404E | with no effect
I404A | with no effect

Variant | effect of a mutation on the interaction
I404K | with no effect
N380A | disrupting interaction strength
N380K | with no effect
N380E | disrupting interaction strength
L350K | with no effect
T400A | with no effect
T400E | with no effect
T400K | with no effect
K360E | with no effect
K360A | with no effect
R353E | with no effect
R353A | with no effect
R353K | with no effect
E369A | with no effect
E369K | with no effect
P366K | with no effect
P366A | with no effect
P366E | with no effect
E351K | with no effect
E351A | with no effect
H373A | with no effect
H373E | with no effect
H373K | with no effect
T386A | with no effect
T386K | with no effect

Variant | effect of a mutation on the interaction
T386E | with no effect
S365A | with no effect
S365E | with no effect
S365K | with no effect
S365C | disrupting interaction strength
T395A | with no effect
T395E | with no effect
T395K | with no effect
I376K | with no effect
I376V | disrupting interaction strength
I376E | with no effect
I376A | with no effect
L387A | with no effect
L387K | disrupting interaction strength
L387E | with no effect
E357K | with no effect
E357A | with no effect
N393K | with no effect
N393A | with no effect
N393E | with no effect
G375E | disrupting interaction strength
G375A | with no effect
G375K | with no effect
R403A | with no effect
R403E | with no effect

Variant | effect of a mutation on the interaction
R403K | with no effect
L391K | with no effect
L391A | with no effect
L391E | with no effect
L383E | with no effect
L383A | with no effect
L383K | with no effect
A398V | disrupting interaction strength
A398K | with no effect
A398E | with no effect
L402C | disrupting interaction strength
L402E | disrupting interaction strength
L402K | disrupting interaction strength
L402A | with no effect
G372K | with no effect
G372E | with no effect
G372A | with no effect
T385E | with no effect
T385K | with no effect
T385A | disrupting interaction strength
L363E | with no effect
L363A | with no effect
L363K | with no effect
T406K | with no effect
T406A | with no effect

Variant | effect of a mutation on the interaction
T406E | with no effect
I377R | disrupting interaction strength
I377K | with no effect
I377T | disrupting interaction strength
I377A | with no effect
I377E | with no effect
S407E | with no effect
S407A | with no effect
L367A | with no effect
L367K | with no effect
L367E | with no effect
P378E | with no effect
P378A | with no effect
P378K | with no effect
S390E | disrupting interaction strength
S390K | with no effect
S390G | disrupting interaction strength
S390A | with no effect
E362Y | disrupting interaction strength
E362A | with no effect
E362K | with no effect
D371A | with no effect
D371V | disrupting interaction strength
D371K | with no effect
D371E | with no effect

Variant | effect of a mutation on the interaction
A364E | with no effect
A364K | with no effect
R374A | with no effect
R374K | with no effect
R374W | disrupting interaction strength
R374E | with no effect
T397K | with no effect
T397E | with no effect
T397A | with no effect
E356K | with no effect
E356S | disrupting interaction strength
E356P | disrupting interaction strength
E356A | with no effect
E356L | disrupting interaction strength
V389K | disrupting interaction strength
V389S | disrupting interaction strength
V389A | with no effect
V389E | disrupting interaction strength
A379K | with no effect
A379E | with no effect
R382A | disrupting interaction strength
R382E | disrupting interaction strength
R382K | with no effect
